Measured values as given in the supplement of paper PMC9112550, “Optimization of the antimicrobial peptide Bac7 by deep mutational scanning” (BMC Biology, 2022).

Tested on: Escherichia coli TOP10
Experiment: shrunken log2 fold change of peptide-encoding DNA abundance (4.5 h post-induction vs induction); higher = less antimicrobial activity (less host growth inhibition)
Settings: time post-induction: 4.5 h; library: site-saturation at positions 5, 18, 19, 20
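Note: peptides expressed intracellularly from a pBAD plasmid library in pooled LB shake-flask culture, induced with 0.3% L-arabinose, DNA abundance read by NGS, three biological replicates, DESeq2 with apeglm shrinkage.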

Sequence	shrunken log2 fold change
RRIRRRPPRLPRPRPRPGPMPRP	0.353
RRIRDRPPRLPRPRPRPHMGPRP	-0.174
RRIRERPPRLPRPRPRPYFHPRP	-0.996
RRIRIRPPRLPRPRPRPCATPRP	-0.122
RRIRLRPPRLPRPRPRPCEAPRP	0.125
RRIRWRPPRLPRPRPRPDHDPRP	0.0812
RRIRLRPPRLPRPRPRPANNPRP	-0.116
RRIRIRPPRLPRPRPRPDNIPRP	-0.116
RRIRYRPPRLPRPRPRPMYYPRP	-0.269
RRIRNRPPRLPRPRPRPKYCPRP	-0.225
RRIRLRPPRLPRPRPRPNSNPRP	-0.335
RRIRERPPRLPRPRPRPSMHPRP	-0.451
RRIRYRPPRLPRPRPRPIGAPRP	-0.419
RRIRWRPPRLPRPRPRPLQNPRP	-0.11
RRIRTRPPRLPRPRPRPTYKPRP	-0.651
RRIRYRPPRLPRPRPRPYEYPRP	-0.095
RRIRCRPPRLPRPRPRPIQGPRP	-0.0195
RRIRRRPPRLPRPRPRPPKGPRP	0.706
RRIRHRPPRLPRPRPRPMNGPRP	-0.287
RRIRCRPPRLPRPRPRPLTQPRP	0.189
RRIRYRPPRLPRPRPRPNHNPRP	-1.23
RRIRARPPRLPRPRPRPFGRPRP	0.547
RRIRQRPPRLPRPRPRPDGPPRP	0.0029
RRIRGRPPRLPRPRPRPALTPRP	0.874
RRIRNRPPRLPRPRPRPAPCPRP	0.0656

Sequence	shrunken log2 fold change
RRIRPRPPRLPRPRPRPHLQPRP	0.152
RRIRKRPPRLPRPRPRPINVPRP	0.095
RRIRPRPPRLPRPRPRPAGSPRP	0.206
RRIRERPPRLPRPRPRPGSTPRP	-0.401
RRIRSRPPRLPRPRPRPGNDPRP	0.111
RRIRSRPPRLPRPRPRPAQGPRP	0.19
RRIRKRPPRLPRPRPRPCWNPRP	-0.228
RRIRMRPPRLPRPRPRPCWTPRP	-0.218
RRIRVRPPRLPRPRPRPCRVPRP	0.00617
RRIRLRPPRLPRPRPRPHDCPRP	-0.0305
RRIRSRPPRLPRPRPRPRVMPRP	-0.171
RRIRTRPPRLPRPRPRPAAWPRP	0.754
RRIRIRPPRLPRPRPRPGERPRP	-0.0896
RRIRRRPPRLPRPRPRPTDDPRP	0.741
RRIRRRPPRLPRPRPRPLKIPRP	-0.0377
RRIRWRPPRLPRPRPRPGTPPRP	0.356
RRIRDRPPRLPRPRPRPKKPPRP	-0.0462
RRIRCRPPRLPRPRPRPTLFPRP	0.196
RRIRQRPPRLPRPRPRPEDDPRP	-0.14
RRIRYRPPRLPRPRPRPIKSPRP	-0.616
RRIRKRPPRLPRPRPRPGCFPRP	0.421
RRIRGRPPRLPRPRPRPDLRPRP	0.0067
RRIRNRPPRLPRPRPRPTASPRP	1.61
RRIRMRPPRLPRPRPRPIQWPRP	0.144
RRIRKRPPRLPRPRPRPRFRPRP	0.276

Sequence	shrunken log2 fold change
RRIRRRPPRLPRPRPRPWSDPRP	-0.107
RRIRTRPPRLPRPRPRPSNYPRP	-1.22
RRIRMRPPRLPRPRPRPGKDPRP	0.0653
RRIRSRPPRLPRPRPRPWKYPRP	0.0245
RRIRMRPPRLPRPRPRPWLRPRP	0.0433
RRIRDRPPRLPRPRPRPADRPRP	0.0125
RRIRYRPPRLPRPRPRPLPYPRP	-0.156
RRIRERPPRLPRPRPRPTKGPRP	-0.184
RRIRYRPPRLPRPRPRPSMTPRP	-0.817
RRIRVRPPRLPRPRPRPAYLPRP	0.0246
RRIRRRPPRLPRPRPRPTISPRP	-0.28
RRIRYRPPRLPRPRPRPAMRPRP	0.372
RRIRCRPPRLPRPRPRPNSYPRP	-0.54
RRIRNRPPRLPRPRPRPLATPRP	0.292
RRIRGRPPRLPRPRPRPANLPRP	0.166
RRIRMRPPRLPRPRPRPFVSPRP	-0.0194
RRIRGRPPRLPRPRPRPYKHPRP	-0.463
RRIRCRPPRLPRPRPRPNNGPRP	-0.451
RRIRARPPRLPRPRPRPNFLPRP	0.0215
RRIRHRPPRLPRPRPRPERFPRP	-0.0122
RRIRCRPPRLPRPRPRPGFQPRP	-0.356
RRIRPRPPRLPRPRPRPPFSPRP	0.0978
RRIRHRPPRLPRPRPRPQFWPRP	0.115
RRIRVRPPRLPRPRPRPEMVPRP	-0.0955
RRIRERPPRLPRPRPRPWLNPRP	-0.00136

Sequence	shrunken log2 fold change
RRIRIRPPRLPRPRPRPCRVPRP	-1.39
RRIRLRPPRLPRPRPRPSYQPRP	-0.255
RRIRTRPPRLPRPRPRPRMMPRP	1.32
RRIRMRPPRLPRPRPRPDDRPRP	-0.012
RRIRARPPRLPRPRPRPTQVPRP	0.224
RRIRQRPPRLPRPRPRPLTCPRP	-0.539
RRIRFRPPRLPRPRPRPLDQPRP	0.0734
RRIRPRPPRLPRPRPRPLTYPRP	-0.0089
RRIRLRPPRLPRPRPRPDLEPRP	0.0992
RRIRWRPPRLPRPRPRPLSEPRP	0.104
RRIRLRPPRLPRPRPRPCCQPRP	-0.194
RRIRPRPPRLPRPRPRPAFVPRP	0.149
RRIRWRPPRLPRPRPRPNAAPRP	0.81
RRIRTRPPRLPRPRPRPVSYPRP	-0.242
RRIRLRPPRLPRPRPRPCIMPRP	-0.0711
RRIRMRPPRLPRPRPRPDWYPRP	-0.135
RRIRERPPRLPRPRPRPKFDPRP	0.154
RRIRYRPPRLPRPRPRPWIEPRP	-0.866
RRIRPRPPRLPRPRPRPCSKPRP	0.0051
RRIRPRPPRLPRPRPRPMWDPRP	-0.0234
RRIRPRPPRLPRPRPRPMCGPRP	-0.252
RRIRYRPPRLPRPRPRPYINPRP	-1.69
RRIRIRPPRLPRPRPRPRASPRP	-0.195
RRIRLRPPRLPRPRPRPCSAPRP	-0.372
RRIRQRPPRLPRPRPRPNFYPRP	-0.0848

Sequence	shrunken log2 fold change
RRIRWRPPRLPRPRPRPHTMPRP	-0.00694
RRIRLRPPRLPRPRPRPETVPRP	0.0594
RRIRCRPPRLPRPRPRPPYNPRP	-0.618
RRIRGRPPRLPRPRPRPLFGPRP	0.584
RRIRARPPRLPRPRPRPWYSPRP	-0.43
RRIRTRPPRLPRPRPRPHRQPRP	-0.256
RRIRHRPPRLPRPRPRPQDQPRP	0.0969
RRIRRRPPRLPRPRPRPTVCPRP	0.227
RRIRIRPPRLPRPRPRPPNKPRP	-0.36
RRIRARPPRLPRPRPRPFWEPRP	0.269
RRIRMRPPRLPRPRPRPDSVPRP	-0.045
RRIRPRPPRLPRPRPRPAGKPRP	-0.0291
RRIRERPPRLPRPRPRPQLCPRP	0.0651
RRIRWRPPRLPRPRPRPKLEPRP	0.808
RRIRERPPRLPRPRPRPDSWPRP	-0.563
RRIRHRPPRLPRPRPRPQAEPRP	-0.0254
RRIRGRPPRLPRPRPRPVGQPRP	0.145
RRIRDRPPRLPRPRPRPGFWPRP	0.493
RRIRMRPPRLPRPRPRPIVSPRP	-0.0362
RRIRPRPPRLPRPRPRPNVIPRP	-0.451
RRIRRRPPRLPRPRPRPIAMPRP	0.0579
RRIRVRPPRLPRPRPRPHQNPRP	-0.296
RRIRMRPPRLPRPRPRPTMNPRP	0.0381
RRIRNRPPRLPRPRPRPTLVPRP	-0.0435
RRIRERPPRLPRPRPRPRQTPRP	0.253

Sequence	shrunken log2 fold change
RRIRARPPRLPRPRPRPWCSPRP	-0.155
RRIRPRPPRLPRPRPRPELWPRP	0.889
RRIRLRPPRLPRPRPRPRFYPRP	0.074
RRIRSRPPRLPRPRPRPIRIPRP	-0.405
RRIRWRPPRLPRPRPRPWWAPRP	-0.194
RRIRFRPPRLPRPRPRPVSSPRP	-0.371
RRIRYRPPRLPRPRPRPRVKPRP	0.0364
RRIRVRPPRLPRPRPRPKQHPRP	-0.301
RRIRLRPPRLPRPRPRPNLMPRP	-0.367
RRIRSRPPRLPRPRPRPMIRPRP	0.0902
RRIRIRPPRLPRPRPRPWAMPRP	-0.493
RRIRSRPPRLPRPRPRPFFYPRP	-0.17
RRIRYRPPRLPRPRPRPQVKPRP	-0.318
RRIRKRPPRLPRPRPRPNLVPRP	-0.0428
RRIRFRPPRLPRPRPRPTHIPRP	-0.496
RRIRTRPPRLPRPRPRPRAIPRP	0.196
RRIRLRPPRLPRPRPRPFWTPRP	0.0168
RRIRYRPPRLPRPRPRPYPTPRP	-0.282
RRIRIRPPRLPRPRPRPYCTPRP	-0.215
RRIRTRPPRLPRPRPRPFDYPRP	-0.0205
RRIRRRPPRLPRPRPRPQYDPRP	-0.224
RRIRIRPPRLPRPRPRPIQHPRP	-0.468
RRIRGRPPRLPRPRPRPHTQPRP	0.0483
RRIRFRPPRLPRPRPRPHCTPRP	-0.268
RRIRKRPPRLPRPRPRPCMRPRP	0.0327
